The text below walks through data of article PMC4087533 (Nature, 2014).

The target in data set [1] is mechanosensitive channel of large conductance (MscL) from Mycobacterium tuberculosis (tag-removed) (Mycobacterium tuberculosis). As to the kind of experiment: native MS.
The data set “native MS” deals with the molecule itself. As to the kind of experiment: native MS.

The stoichiometry N is the number of molecules, sites or subunits per partner or assembly. Molecule “mechanosensitive channel of large conductance (MscL) from Mycobacterium tuberculosis (tag-removed) (natural protein)” showed a stoichiometry N in data set [1] of 5.

B1: ammonia channel AmtB from E. coli (tag-removed) (natural protein)
chain: GASVADKADNAFMMICTALVLFMTIPGIALFYGGLIRGKNVLSMLTQVTVTFALVCILWVVYGYSLAFGEGNNFFGNINWLMLKNIELTAVMGSIYQYIHVAFQGSFACITVGLIVGALAERIRFSAVLIFVVVWLTLSYIPIAHMVWGGGLLASHGALDFAGGTVVHINAAIAGLVGAYLIGKRVGFGKEAFKPHNLPMVFTGTAILYIGWFGFNAGSAGTANEIAALAFVNTVVATAAAILGWIFGEWALRGKPSLLGACSGAIAGLVGVTPACGYIGVGGALIIGVVAGLAGLWGVTMLKRLLRVDDPCDVFGVHGVCGIVGCIMTGIFAASSLGGVGFAEGVTMGHQLLVQLESIAITIVWSGVVAFIGYKLADLTVGLRVPEEQEREGLDVNSHGENAYNA
With B1, in the data set “native MS”, the “stoichiometry N” value worked out at 3.
